{"source": "paper PMC2978668", "origin": "cited, not measured here", "key": {"fibulin-2": {"target": "fibulin-2 (UniProt P98095)"}, "perlecan domain IV [1]": {"target": "perlecan domain IV (UniProt P98160)", "sequence (P98160 1677-3686)": "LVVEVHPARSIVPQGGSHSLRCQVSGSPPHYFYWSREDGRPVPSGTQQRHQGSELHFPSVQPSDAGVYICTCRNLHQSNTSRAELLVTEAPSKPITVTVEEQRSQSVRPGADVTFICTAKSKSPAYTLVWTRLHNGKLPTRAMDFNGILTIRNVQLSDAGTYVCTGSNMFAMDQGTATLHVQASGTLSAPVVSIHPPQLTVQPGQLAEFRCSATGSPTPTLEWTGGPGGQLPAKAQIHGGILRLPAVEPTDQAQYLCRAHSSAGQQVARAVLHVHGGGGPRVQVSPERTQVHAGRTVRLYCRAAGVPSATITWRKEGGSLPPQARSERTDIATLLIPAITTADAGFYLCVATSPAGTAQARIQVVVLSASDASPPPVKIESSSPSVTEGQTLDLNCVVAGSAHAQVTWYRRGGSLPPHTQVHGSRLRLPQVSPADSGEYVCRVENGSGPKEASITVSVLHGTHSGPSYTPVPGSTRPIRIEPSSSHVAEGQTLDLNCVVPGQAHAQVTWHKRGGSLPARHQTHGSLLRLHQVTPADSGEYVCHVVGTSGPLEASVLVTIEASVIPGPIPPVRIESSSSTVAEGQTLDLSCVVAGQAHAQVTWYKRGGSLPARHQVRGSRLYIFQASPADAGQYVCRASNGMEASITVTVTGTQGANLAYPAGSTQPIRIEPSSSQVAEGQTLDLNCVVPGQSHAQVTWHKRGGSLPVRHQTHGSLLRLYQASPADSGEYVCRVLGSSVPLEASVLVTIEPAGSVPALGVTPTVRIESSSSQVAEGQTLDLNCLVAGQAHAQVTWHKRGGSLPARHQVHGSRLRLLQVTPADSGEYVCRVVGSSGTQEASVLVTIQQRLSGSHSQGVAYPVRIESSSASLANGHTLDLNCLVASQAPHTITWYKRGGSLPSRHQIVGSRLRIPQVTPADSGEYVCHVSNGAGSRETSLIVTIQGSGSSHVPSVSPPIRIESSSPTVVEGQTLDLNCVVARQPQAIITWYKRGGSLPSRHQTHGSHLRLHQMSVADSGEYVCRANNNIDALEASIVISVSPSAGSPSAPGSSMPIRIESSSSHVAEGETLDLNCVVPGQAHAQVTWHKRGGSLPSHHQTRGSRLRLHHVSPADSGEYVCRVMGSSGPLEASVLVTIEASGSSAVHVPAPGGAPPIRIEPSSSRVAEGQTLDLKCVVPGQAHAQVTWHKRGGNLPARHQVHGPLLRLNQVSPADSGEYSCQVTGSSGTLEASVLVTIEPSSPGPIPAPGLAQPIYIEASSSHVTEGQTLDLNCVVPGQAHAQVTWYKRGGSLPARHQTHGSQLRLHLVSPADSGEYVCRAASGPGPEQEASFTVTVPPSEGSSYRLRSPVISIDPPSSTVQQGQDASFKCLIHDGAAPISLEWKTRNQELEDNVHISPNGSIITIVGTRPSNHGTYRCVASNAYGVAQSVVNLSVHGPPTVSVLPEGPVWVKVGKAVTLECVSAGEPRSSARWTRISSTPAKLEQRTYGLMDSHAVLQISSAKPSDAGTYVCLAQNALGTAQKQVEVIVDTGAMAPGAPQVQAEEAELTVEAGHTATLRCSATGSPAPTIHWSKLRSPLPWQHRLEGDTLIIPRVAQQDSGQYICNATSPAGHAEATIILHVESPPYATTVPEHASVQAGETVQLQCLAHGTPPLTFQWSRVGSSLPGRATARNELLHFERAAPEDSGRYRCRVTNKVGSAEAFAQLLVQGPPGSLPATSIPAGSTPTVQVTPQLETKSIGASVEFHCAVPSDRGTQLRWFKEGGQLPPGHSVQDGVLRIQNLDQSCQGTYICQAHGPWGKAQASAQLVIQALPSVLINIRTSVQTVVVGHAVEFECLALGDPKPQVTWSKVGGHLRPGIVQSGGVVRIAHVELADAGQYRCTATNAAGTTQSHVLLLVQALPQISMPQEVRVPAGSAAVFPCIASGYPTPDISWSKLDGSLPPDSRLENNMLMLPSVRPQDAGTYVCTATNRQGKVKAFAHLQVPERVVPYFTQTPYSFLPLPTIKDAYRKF"}, "fibronectin": {"target": "fibronectin (UniProt P02751)"}, "α1-laminin": {"target": "α1-laminin (UniProt P25391)"}, "agrin (muscle)": {"target": "agrin (muscle) (UniProt O00468)"}, "α2-laminin": {"target": "α2-laminin (UniProt P24043)"}, "α4-laminin": {"target": "α4-laminin (UniProt Q16363)", "sequence (Q16363 25-1823)": "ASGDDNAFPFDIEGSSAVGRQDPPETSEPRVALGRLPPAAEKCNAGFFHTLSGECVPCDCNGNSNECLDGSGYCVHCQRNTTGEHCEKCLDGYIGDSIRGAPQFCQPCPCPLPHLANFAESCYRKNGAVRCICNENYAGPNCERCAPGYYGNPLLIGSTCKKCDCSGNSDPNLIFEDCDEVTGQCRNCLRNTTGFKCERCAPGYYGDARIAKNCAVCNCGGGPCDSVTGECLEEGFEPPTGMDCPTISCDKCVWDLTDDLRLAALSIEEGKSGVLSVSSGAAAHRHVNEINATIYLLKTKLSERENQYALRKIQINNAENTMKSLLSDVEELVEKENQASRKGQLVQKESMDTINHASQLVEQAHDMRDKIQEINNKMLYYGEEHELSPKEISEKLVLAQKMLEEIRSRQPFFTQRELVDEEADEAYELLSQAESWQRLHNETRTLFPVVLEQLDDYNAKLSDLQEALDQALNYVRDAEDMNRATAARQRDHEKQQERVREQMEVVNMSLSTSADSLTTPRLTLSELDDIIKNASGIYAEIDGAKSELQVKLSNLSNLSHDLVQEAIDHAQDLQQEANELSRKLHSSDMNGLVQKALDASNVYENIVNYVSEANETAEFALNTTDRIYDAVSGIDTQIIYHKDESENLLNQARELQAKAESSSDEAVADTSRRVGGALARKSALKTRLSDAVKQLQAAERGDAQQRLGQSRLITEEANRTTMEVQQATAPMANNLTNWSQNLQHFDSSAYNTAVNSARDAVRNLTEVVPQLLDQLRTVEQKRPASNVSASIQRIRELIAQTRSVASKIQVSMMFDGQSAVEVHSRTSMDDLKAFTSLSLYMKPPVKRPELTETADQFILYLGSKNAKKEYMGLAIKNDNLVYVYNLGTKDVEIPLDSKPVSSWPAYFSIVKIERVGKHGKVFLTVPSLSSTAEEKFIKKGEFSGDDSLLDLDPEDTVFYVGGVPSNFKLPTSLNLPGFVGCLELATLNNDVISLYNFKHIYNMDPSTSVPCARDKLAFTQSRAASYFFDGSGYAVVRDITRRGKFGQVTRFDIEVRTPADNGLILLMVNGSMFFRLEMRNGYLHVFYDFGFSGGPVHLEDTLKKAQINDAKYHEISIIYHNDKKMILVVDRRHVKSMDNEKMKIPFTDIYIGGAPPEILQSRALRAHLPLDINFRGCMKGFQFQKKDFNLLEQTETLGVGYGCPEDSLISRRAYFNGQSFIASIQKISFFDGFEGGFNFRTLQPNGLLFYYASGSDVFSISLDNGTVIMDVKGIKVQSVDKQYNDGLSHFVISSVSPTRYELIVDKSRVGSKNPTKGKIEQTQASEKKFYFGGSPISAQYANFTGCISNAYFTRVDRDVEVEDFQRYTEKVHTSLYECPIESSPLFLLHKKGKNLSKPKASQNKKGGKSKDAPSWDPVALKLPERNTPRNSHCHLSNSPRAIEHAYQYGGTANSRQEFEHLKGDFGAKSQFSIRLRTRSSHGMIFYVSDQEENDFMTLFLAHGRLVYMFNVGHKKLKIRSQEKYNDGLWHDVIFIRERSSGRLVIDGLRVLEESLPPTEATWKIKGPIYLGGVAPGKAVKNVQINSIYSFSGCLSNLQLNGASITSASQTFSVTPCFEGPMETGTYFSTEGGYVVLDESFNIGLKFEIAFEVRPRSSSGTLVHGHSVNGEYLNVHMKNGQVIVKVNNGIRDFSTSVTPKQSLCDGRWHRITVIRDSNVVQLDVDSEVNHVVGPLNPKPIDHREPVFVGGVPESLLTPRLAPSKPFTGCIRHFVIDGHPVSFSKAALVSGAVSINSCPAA"}, "α5-laminin": {"target": "α5-laminin (UniProt O15230)"}, "perlecan LG": {"target": "perlecan LG (UniProt P98160)", "sequence (P98160 3687-4391)": "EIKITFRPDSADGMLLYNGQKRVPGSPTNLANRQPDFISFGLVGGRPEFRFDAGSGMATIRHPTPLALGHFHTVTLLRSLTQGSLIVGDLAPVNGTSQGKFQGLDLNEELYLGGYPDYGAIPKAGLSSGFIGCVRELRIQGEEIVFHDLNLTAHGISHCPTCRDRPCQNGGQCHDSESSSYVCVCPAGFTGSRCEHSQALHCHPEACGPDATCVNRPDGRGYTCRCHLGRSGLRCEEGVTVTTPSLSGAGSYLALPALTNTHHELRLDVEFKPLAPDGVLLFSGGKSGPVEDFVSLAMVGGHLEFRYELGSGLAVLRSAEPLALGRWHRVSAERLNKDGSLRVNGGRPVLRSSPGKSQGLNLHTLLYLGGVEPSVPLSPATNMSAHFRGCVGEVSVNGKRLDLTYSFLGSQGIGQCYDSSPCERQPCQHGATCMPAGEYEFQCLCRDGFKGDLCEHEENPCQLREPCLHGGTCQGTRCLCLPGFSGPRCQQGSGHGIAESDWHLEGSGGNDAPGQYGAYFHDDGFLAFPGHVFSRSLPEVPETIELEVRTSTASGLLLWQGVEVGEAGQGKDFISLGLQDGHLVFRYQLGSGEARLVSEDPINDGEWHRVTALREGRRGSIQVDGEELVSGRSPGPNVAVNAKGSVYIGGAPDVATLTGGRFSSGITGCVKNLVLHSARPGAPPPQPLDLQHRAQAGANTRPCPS"}, "perlecan domain IV [2]": {"target": "perlecan domain IV (UniProt P98160)", "remark": "listed apart in the source"}}, "note": "pKd: −log10 of the molar value. Like-named read-outs stand apart in the source and are kept apart here.", "data": [{"substance": "nidogen (from UniProt P14543)", "values": [{"measurement": "pKd", "setting": "fibulin-2", "value": "> 9.30"}]}, {"substance": "nidogen-1 G2 (from UniProt P14543)", "values": [{"measurement": "pKd", "setting": "perlecan domain IV [1]", "value": 8.00}]}, {"substance": "perlecan domain IV (from UniProt P98160)", "values": [{"measurement": "pKd", "setting": "fibronectin", "value": 8.00}]}, {"substance": "α-dystroglycan (from UniProt Q14118)", "values": [{"measurement": "pKd", "setting": "α1-laminin", "value": 7.70}, {"measurement": "pKd", "setting": "agrin (muscle)", "value": 8.70}, {"measurement": "pKd", "setting": "α2-laminin", "value": 7.37}, {"measurement": "pKd", "setting": "α4-laminin", "value": "< 6.00"}, {"measurement": "pKd", "setting": "α5-laminin", "value": 6.82}, {"measurement": "pKd", "setting": "perlecan LG", "value": 7.80}]}, {"substance": "nidogen-2 (from UniProt Q14112)", "values": [{"measurement": "pKd", "setting": "perlecan domain IV [2]", "value": 8.00}]}]}
